The record followed here is PMC6679980 (Biochimica et biophysica acta. General subjects, 2019).

This test concerns the target GST-FL-UBQLN1 (full-length wild-type human UBQLN1 GST-fusion protein) (human, UniProt Q9UMX0 1-589). Put plainly: pull-down.

Sequence of GST-FL-UBQLN1 (full-length wild-type human UBQLN1 GST-fusion protein) (Q9UMX0 whole entry, the tested form may be a part): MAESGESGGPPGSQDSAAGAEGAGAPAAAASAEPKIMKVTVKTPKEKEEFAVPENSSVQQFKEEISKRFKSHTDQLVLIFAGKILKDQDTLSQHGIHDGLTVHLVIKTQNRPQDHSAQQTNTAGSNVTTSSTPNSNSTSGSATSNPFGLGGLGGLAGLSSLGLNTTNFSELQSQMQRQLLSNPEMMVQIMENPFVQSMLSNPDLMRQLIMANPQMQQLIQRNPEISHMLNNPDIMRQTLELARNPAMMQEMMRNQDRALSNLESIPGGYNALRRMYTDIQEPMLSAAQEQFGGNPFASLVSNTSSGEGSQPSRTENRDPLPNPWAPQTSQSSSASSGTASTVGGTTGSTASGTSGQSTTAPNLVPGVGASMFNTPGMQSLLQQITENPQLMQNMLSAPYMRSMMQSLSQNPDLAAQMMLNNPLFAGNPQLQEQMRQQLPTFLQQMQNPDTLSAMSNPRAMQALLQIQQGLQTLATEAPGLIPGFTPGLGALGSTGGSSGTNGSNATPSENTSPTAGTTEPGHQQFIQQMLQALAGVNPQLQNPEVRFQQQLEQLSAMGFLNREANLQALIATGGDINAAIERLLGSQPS

B1: Full-length human S5a proteasome subunit, His-tagged (natural protein, UniProt P55036 1-377, looked up)
chain: MVLESTMVCVDNSEYMRNGDFLPTRLQAQQDAVNIVCHSKTRSNPENNVGLITLANDCEVLTTLTPDTGRILSKLHTVQPKGKITFCTGIRVAHLALKHRQGKNHKMRIIAFVGSPVEDNEKDLVKLAKRLKKEKVNVDIINFGEEEVNTEKLTAFVNTLNGKDGTGSHLVTVPPGPSLADALISSPILAGEGGAMLGLGASDFEFGVDPSADPELALALRVSMEEQRQRQEEEARRAAAASAAEAGIATTGTEDSDDALLKMTISQQEFGRTGLPDLSSMTEEEQIAYAMQMSLQGAEFGQAESADIDASSAMDTSEPAKEEDDYDVMQDPEFLQSVLENLPGVDPNNEAIRNAMGSLASQATKDGKKDKKEEDKK
Consider B1, for which the binding result is given as “binds”.
